From publication PMC4113420 (Molecular cell, 2014)

Experiments:
SEC = target: the molecule itself; assay: SEC
Msh2-Msh6 = Msh2-Msh6 (S. cerevisiae, UniProt P25847 1-964; Q03834 1-1242); assay: SPR
Msh2-Msh6, sequence (P25847 whole entry, chain 1 of 2): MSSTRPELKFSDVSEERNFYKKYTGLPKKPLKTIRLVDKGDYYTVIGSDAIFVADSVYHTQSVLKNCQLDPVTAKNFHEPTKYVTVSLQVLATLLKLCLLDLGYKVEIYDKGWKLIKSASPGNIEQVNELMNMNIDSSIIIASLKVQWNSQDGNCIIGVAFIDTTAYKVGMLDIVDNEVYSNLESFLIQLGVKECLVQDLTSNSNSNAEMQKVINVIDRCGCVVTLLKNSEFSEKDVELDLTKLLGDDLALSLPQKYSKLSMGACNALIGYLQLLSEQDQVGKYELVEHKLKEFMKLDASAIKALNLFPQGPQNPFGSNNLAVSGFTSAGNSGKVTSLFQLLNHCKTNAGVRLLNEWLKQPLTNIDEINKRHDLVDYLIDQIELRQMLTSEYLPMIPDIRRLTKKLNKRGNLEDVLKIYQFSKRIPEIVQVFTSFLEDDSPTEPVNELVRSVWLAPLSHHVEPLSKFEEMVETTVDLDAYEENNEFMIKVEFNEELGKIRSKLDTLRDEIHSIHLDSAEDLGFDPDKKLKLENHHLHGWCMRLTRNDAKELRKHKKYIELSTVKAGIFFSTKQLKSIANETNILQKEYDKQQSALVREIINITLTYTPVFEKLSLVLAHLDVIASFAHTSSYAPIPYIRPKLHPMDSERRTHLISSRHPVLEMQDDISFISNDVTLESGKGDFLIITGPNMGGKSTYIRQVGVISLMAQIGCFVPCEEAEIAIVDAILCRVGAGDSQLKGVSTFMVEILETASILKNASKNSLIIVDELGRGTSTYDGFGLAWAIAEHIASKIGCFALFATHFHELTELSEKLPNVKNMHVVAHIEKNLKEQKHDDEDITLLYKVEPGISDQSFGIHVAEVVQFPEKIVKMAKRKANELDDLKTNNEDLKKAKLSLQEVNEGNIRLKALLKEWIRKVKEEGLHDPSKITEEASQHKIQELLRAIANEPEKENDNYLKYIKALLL
Msh2-Msh6, sequence (Q03834 whole entry, chain 2 of 2): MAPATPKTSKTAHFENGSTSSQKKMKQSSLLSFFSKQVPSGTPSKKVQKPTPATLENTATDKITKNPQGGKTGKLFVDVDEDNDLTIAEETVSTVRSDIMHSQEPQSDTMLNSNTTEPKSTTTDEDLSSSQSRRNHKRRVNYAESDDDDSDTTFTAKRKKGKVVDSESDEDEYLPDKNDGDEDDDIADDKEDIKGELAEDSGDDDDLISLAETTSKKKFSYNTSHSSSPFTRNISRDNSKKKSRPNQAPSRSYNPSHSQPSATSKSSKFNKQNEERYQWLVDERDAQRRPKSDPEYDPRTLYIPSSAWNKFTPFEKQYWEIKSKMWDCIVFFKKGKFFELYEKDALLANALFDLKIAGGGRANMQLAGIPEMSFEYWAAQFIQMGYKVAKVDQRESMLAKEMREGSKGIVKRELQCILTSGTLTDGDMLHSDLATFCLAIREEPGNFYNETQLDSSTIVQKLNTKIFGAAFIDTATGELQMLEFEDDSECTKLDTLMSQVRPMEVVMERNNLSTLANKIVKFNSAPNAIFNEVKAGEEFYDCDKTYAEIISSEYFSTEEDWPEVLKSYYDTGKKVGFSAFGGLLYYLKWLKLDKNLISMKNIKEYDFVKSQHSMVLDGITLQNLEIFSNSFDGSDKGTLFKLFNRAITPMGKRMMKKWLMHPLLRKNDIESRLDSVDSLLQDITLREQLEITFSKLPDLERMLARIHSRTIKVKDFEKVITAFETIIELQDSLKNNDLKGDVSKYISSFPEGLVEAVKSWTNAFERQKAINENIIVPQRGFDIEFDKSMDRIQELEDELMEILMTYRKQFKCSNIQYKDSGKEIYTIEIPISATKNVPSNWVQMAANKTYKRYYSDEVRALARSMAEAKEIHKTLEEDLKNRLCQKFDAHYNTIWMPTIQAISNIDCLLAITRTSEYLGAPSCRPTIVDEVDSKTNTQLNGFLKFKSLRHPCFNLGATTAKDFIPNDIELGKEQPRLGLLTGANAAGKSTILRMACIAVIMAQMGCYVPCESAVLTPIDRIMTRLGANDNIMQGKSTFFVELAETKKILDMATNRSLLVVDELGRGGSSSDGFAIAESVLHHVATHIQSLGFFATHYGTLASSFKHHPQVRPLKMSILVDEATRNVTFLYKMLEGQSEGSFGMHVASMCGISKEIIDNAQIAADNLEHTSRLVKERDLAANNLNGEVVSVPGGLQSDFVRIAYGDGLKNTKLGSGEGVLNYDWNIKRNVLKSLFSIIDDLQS

| binding result (Msh2-Msh6) | Binder | binding result (SEC) |
| --- | --- | --- |
| binds | Wild-type PCNA (S. cerevisiae, encoded by POL30) (natural protein, biotinylated when bound to the SPR chip (site not stated)) MLEAKFEEASLFKRIIDGFKDCVQLVNFQCKEDGIIAQAVDDSRVLLVSLEIGVEAFQEYRCDHPVTLGMDLTSLSKILRCGNNTDTLTLIADNTPDSIILLFEDTKKDRIAEYSLKLMDIDADFLKIEELQYDSTLSLPSSEFSKIVRDLSQLSDSINIMITKETIKFVADGDIGSGSVIIKPFVDMEHPETSIKLEMDQPVDLTFGAKYLLDIIKGSSLSDRVGIRLSSEAPALFQFDLKSGFLQFFLAPKFNDEE | binds |
| binds | PCNA-K13E (natural protein, S. cerevisiae, biotinylated when bound to the SPR chip (site not stated)) MLEAKFEEASLFERIIDGFKDCVQLVNFQCKEDGIIAQAVDDSRVLLVSLEIGVEAFQEYRCDHPVTLGMDLTSLSKILRCGNNTDTLTLIADNTPDSIILLFEDTKKDRIAEYSLKLMDIDADFLKIEELQYDSTLSLPSSEFSKIVRDLSQLSDSINIMITKETIKFVADGDIGSGSVIIKPFVDMEHPETSIKLEMDQPVDLTFGAKYLLDIIKGSSLSDRVGIRLSSEAPALFQFDLKSGFLQFFLAPKFNDEE | binds |
| binds | PCNA-K217E (natural protein, S. cerevisiae, biotinylated when bound to the SPR chip (site not stated)) MLEAKFEEASLFKRIIDGFKDCVQLVNFQCKEDGIIAQAVDDSRVLLVSLEIGVEAFQEYRCDHPVTLGMDLTSLSKILRCGNNTDTLTLIADNTPDSIILLFEDTKKDRIAEYSLKLMDIDADFLKIEELQYDSTLSLPSSEFSKIVRDLSQLSDSINIMITKETIKFVADGDIGSGSVIIKPFVDMEHPETSIKLEMDQPVDLTFGAKYLLDIIEGSSLSDRVGIRLSSEAPALFQFDLKSGFLQFFLAPKFNDEE | binds |
| binds | PCNA-F254L (natural protein, S. cerevisiae, biotinylated when bound to the SPR chip (site not stated)) MLEAKFEEASLFKRIIDGFKDCVQLVNFQCKEDGIIAQAVDDSRVLLVSLEIGVEAFQEYRCDHPVTLGMDLTSLSKILRCGNNTDTLTLIADNTPDSIILLFEDTKKDRIAEYSLKLMDIDADFLKIEELQYDSTLSLPSSEFSKIVRDLSQLSDSINIMITKETIKFVADGDIGSGSVIIKPFVDMEHPETSIKLEMDQPVDLTFGAKYLLDIIKGSSLSDRVGIRLSSEAPALFQFDLKSGFLQFFLAPKLNDEE | binds |
| binds | PCNA-C81R (natural protein, S. cerevisiae, biotinylated when bound to the SPR chip (site not stated)) MLEAKFEEASLFKRIIDGFKDCVQLVNFQCKEDGIIAQAVDDSRVLLVSLEIGVEAFQEYRCDHPVTLGMDLTSLSKILRRGNNTDTLTLIADNTPDSIILLFEDTKKDRIAEYSLKLMDIDADFLKIEELQYDSTLSLPSSEFSKIVRDLSQLSDSINIMITKETIKFVADGDIGSGSVIIKPFVDMEHPETSIKLEMDQPVDLTFGAKYLLDIIKGSSLSDRVGIRLSSEAPALFQFDLKSGFLQFFLAPKFNDEE |  |
| binds | PCNA-E143K (natural protein, S. cerevisiae, biotinylated when bound to the SPR chip (site not stated)) MLEAKFEEASLFKRIIDGFKDCVQLVNFQCKEDGIIAQAVDDSRVLLVSLEIGVEAFQEYRCDHPVTLGMDLTSLSKILRCGNNTDTLTLIADNTPDSIILLFEDTKKDRIAEYSLKLMDIDADFLKIEELQYDSTLSLPSSKFSKIVRDLSQLSDSINIMITKETIKFVADGDIGSGSVIIKPFVDMEHPETSIKLEMDQPVDLTFGAKYLLDIIKGSSLSDRVGIRLSSEAPALFQFDLKSGFLQFFLAPKFNDEE | binds |
| binds | PCNA-L68S (natural protein, S. cerevisiae, biotinylated when bound to the SPR chip (site not stated)) MLEAKFEEASLFKRIIDGFKDCVQLVNFQCKEDGIIAQAVDDSRVLLVSLEIGVEAFQEYRCDHPVTSGMDLTSLSKILRCGNNTDTLTLIADNTPDSIILLFEDTKKDRIAEYSLKLMDIDADFLKIEELQYDSTLSLPSSEFSKIVRDLSQLSDSINIMITKETIKFVADGDIGSGSVIIKPFVDMEHPETSIKLEMDQPVDLTFGAKYLLDIIKGSSLSDRVGIRLSSEAPALFQFDLKSGFLQFFLAPKFNDEE |  |
| binds | PCNA-C22Y (natural protein, S. cerevisiae, biotinylated when bound to the SPR chip (site not stated)) MLEAKFEEASLFKRIIDGFKDYVQLVNFQCKEDGIIAQAVDDSRVLLVSLEIGVEAFQEYRCDHPVTLGMDLTSLSKILRCGNNTDTLTLIADNTPDSIILLFEDTKKDRIAEYSLKLMDIDADFLKIEELQYDSTLSLPSSEFSKIVRDLSQLSDSINIMITKETIKFVADGDIGSGSVIIKPFVDMEHPETSIKLEMDQPVDLTFGAKYLLDIIKGSSLSDRVGIRLSSEAPALFQFDLKSGFLQFFLAPKFNDEE | binds |
